Results taken from the RNAGym collection of RNA variant scans (doi:10.1073/pnas.2313332121).

B1: TPR t1 (parent)
chain: GACCAAUCUGCCCUCAGAGCUCGAGAACAUCUUCGGAUGCAGAGGAGGCAGGCUUCGGUGGCGCGAUAGCGCCAACGUCCUCAACCUCCAAUGCAUCCCACCACAUGAUGAUGCCUGAAGAGCCUUGGUUUUUUG

Variants of: B1
Assay: polymerase ribozyme fitness, log enrichment relative to wild type (log ratio); higher = more active; in vitro selection for triplet polymerase activity
Method in brief: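 Input and output libraries were sequenced on Illumina after a single in vitro selection round, run in triplicate on PCR-built, transcribed mutant libraries of each subunit of a heterodimeric triplet polymerase ribozyme. Selection annealed libraries to a biotinylated primer, the partner subunit and triplets, incubated them frozen at −7 °C, then gel-excised extended constructs for streptavidin-bead capture and RT-PCR. Genotypes with ≥10 input reads and ≥1 read per output were kept. Fitness is the logarithm, taken in base 2, of genotype enrichment divided by wild-type enrichment, using inverse-variance-weighted replicate averages.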
With GACCAAUCUGCCCUCAGAGCUCGAGAACAUCUUCGGAUGCAGAGGAGGCAGGCUUCGGUGCCGCGAUAGCGCCAACGUCCUCAACCUCCAAUGCAUCCCACCACAUGAUGAUGCCUGAAGAGGCUUGGUUUUUUG [G61C C123G] the “polymerase ribozyme fitness (log ratio)” value was 0.189.
In the case of GACCAAUCUGCCCUCAGAGCUCGAGAACAUCUUCGGAUGCAGAGGAGGCAGGCAUCGGUGGCGCGAUAGCGCCAAUGUCCUCAACCUCCAAUGCAUCCCACCACAUGAUGAUGCCUGAAGAGCCUUGGUUUUUUG [U54A C76U], the “polymerase ribozyme fitness (log ratio)” value is reported as -0.995.
In the case of GACCAAUCUGCCCGCAGAGCUCGAGAACAUCUUCGGAUGCAGAGGAGGCAGGCUUCGGUUACGCGAUAGCGCCAACGUCCUCAACCUCCAAUGCAUCCCACCACAUGAUGAUGCCUGAAGAGCCUUGGUUUUUUG [U14G G60U G61A], the “polymerase ribozyme fitness (log ratio)” value is reported as -3.09.
In the case of GACCAAUCUGCCCUCAGAGCUCGAGAACAUCUUCGGAUGCAGAGGAGGCAGGCUUCUGUGGCGCGAUAGCGCCAACGACCUCAACCUCCAAUGCAUCCCACCACAUGAUGAUGCCUAAAGAGCCUUGGUUUUUUU [G57U U78A G117A G135U], the “polymerase ribozyme fitness (log ratio)” value is reported as -2.21.
For GACCAAUCUGCCCUCAGAGCUCGAGAACAUCUUCGGAUGCAGAGGAGGCAGGCUUCUGUGGCCCGAUAGCGCCAACGUCCUCAACCUCCAAUGCAUCCCACCACAUGAUGAUGCCUGAAGAGCCUUGGUUUUUUG [G57U G63C], the “polymerase ribozyme fitness (log ratio)” value was -1.73.
In the case of GACCAUUCUGCCCUCAGAGCUCGAGAACAUCUUCGGAUGCAGAGGAGGCAGGUUUCGGUGCCGCGAUAGCGCCAACCUCCUCAACCUCCAAUGCAUCCCACCAAAUGAUGAUGCCUGAAGAGCCUUGGUUUUUUG [A6U C53U G61C G77C C104A], the “polymerase ribozyme fitness (log ratio)” value is reported as -2.75.
With GACCAAUCUACCCUCAGAGCUCGAGAACAUCUUCGGAUGCAGAGGAGGCAGGCUUCGGUGGCGCGAUAGUGCCAACGUCCUCAACCUCCAAUGCAUCCCACCACAUGAUGAUGCCUGAAGUGCCUUGGUUUUUUG [G10A C70U A121U] the “polymerase ribozyme fitness (log ratio)” value was 1.19.
For GACCAAUCUGCCCUCAGAGCUCGAGAACAUCUUCGGAUGCAGGGGAGGCAGGAUUCGGUGGCGCGAUAGCGCCAACGUCCUCAACCUCGAAUGCAUGCCACCACAUGAUGAUGCCUGAAGAGGCUUGGUUUUUUG [A43G C53A C89G C97G C123G], the “polymerase ribozyme fitness (log ratio)” value was -5.57.
In the case of GACCAAUCUGCCCUCAGAGCUCGGGAACAUCUUCGGAUGCAGAGGAGGCAGGCUUCGGUGGCGCGAUAUCGCCAACGUCCUCAACCUCCAAUGCAUCCCUCCACAUGAUGAUGCCUGAAGAGCCUUGGUUUUUUG [A24G G69U A100U], the “polymerase ribozyme fitness (log ratio)” value is reported as -1.09.
In the case of GACCAAUGUGCCCUCAGAGCUCGAGAACAUCUUCGGAUGAAGAGGAGGCAGGCUUCGGUGGCGCGAUAGCGCCAACGCCCUCAACCUCCAAUGCAUCCCACCACAUGAUGAUGCCUGAAGAGCCUUGGUUUUUUG [C8G C40A U78C], the “polymerase ribozyme fitness (log ratio)” value is reported as -0.518.
For GACCAAUCUGCCCUCAGAGCUCGAGAACAUCUUCGGAUGCAGAGGAGGCAGGCUUCGGUGGCGCGAUAGCAGCAACGUCCUCAACCUCCAAUGCAUCCCACCACAUGAUGAUGUCUGAAGAGCCUUGGUUUUUUG [G71A C72G C114U], the “polymerase ribozyme fitness (log ratio)” value was -4.69.
In the case of GACCAUUCUGCCCUCAGAGCUCGAGAACAUCUUCGGAUGCAGAGGAGGCAGGCUUCGAUGGCGCGAUAGCGCCAACGUCCACAACCUCCAAUGCAUCCCACCACAUGAUAAUGCCUGCAGAGCCUUGGUUUUUUG [A6U G58A U81A G110A A118C], the “polymerase ribozyme fitness (log ratio)” value is reported as -2.44.
For GACCAAUCUGCCCUCAGAGCUCGAGAACAUCUUCGGAUGCAGAGGAGGCAGGCUUUGGUGGCGCGUUAUCGCCAACGUCAUCAACCUCCAAUGCAUCCCACCACAUGAUGAUGCCUGAAGCGCCUUGGUAUUUUG [C56U A66U G69U C80A A121C U130A], the “polymerase ribozyme fitness (log ratio)” value was -6.49.
With GACCAAUUUGCACUCAGAUCUCGAGAACAUCUUCGGAUGCAGAGGAGGCAGGCUUCGGCGGCGCGAUAGCGCCAUCGUCCUCAACCUCCAAUGCAUCCCACCACAUGAUGAUGCCUGAAAAGCCUUGGUUUUUUG [C8U C12A G19U U59C A75U G120A] the “polymerase ribozyme fitness (log ratio)” value was -1.37.
With GGCCAAUAUGCCCUCAGAGCUCGAGAACAUCUUCGGAUGCAGAGGAGGCAUGCUUCGGGGGCGCGAUAGCGCCAACGUCCUCAACCUCCAAUGCAUCCCACCACAUGAUGAUGCCUGAAGAGCCUUGGUUUUUUG [A2G C8A G51U U59G] the “polymerase ribozyme fitness (log ratio)” value was -2.18.
For GACCAAUCUGCCCUCAGAGCUCGAGAACAUCUUCGGAUGCAGAGGAGGCAGGCUUCGGUGGCGCGAUAGCGCCCACGUCCUCAACCUCCAAUGCAACCCACCACAUGAUGAUGCCUCAAGAGCCUUGGUUUUUUG [A74C U96A G117C], the “polymerase ribozyme fitness (log ratio)” value was -5.37.
In the case of GACCAAUCUGCCCUCAGAGCUCGAGAACAUCUUCGGAUGAAGCGGAGGCAGGCUUCGGUGGCGCGAUAGCGCCAACGUCCUCAACCUCCAAUGCAUCCCACCACAUGAUGAUGCCUGAACAGCCUUGGUAUUUUG [C40A A43C G120C U130A], the “polymerase ribozyme fitness (log ratio)” value is reported as -2.63.
For GACCAAUCUGCCCUCAGAGCUCGAGAACAUCUUCGGAUGCAGAGGAGGCAGGCUUCGGUGACGCGAUAGCGCCAACGUACUCAACCUCCAAUGCAUCCCACCAAAUGAUGUUGCCUGAAGAGCCUUGGUUUUUUG [G61A C79A C104A A111U], the “polymerase ribozyme fitness (log ratio)” value was -5.96.
For GACCAAUCUGCCCUCAGAGCUCGAGAACAUCUUCGGAUGCAGAGGAGGCAGGCUUCGGUGGCGCGAUAGCGCCAACGUCCGCAACCUCCAAUGCAUCCCACCACAUGAUGAUGCCUGAAGAGCCUUCGUUUUUUG [U81G G127C], the “polymerase ribozyme fitness (log ratio)” value was -4.77.
With GACUAAUCUGCCCUCAGAGCUCGAGAACAUCUUCGGAUGCAGAGGAGGCAGGCAUCGGUGGGGCGAUAGCGCCAACGUCCUCAACCUCCAAUCCAUCCCACCACAUGAUGAUGCCUGAAUAGCCUUGGUCUUUUG [C4U U54A C62G G93C G120U U130C] the “polymerase ribozyme fitness (log ratio)” value was -5.69.
With GACCAAUCUGCCCCCAGAGCUCGAGAACAUCUUCGGAUGCAGAUGAGGCAGGCUUCGGUGGCGCGAUAGCGCCAACGUCCUCAACCUCCAAUGCAUCCCACCACAUGAUGAUGCCUGAAGAGCCUUGGUUUUUUG [U14C G44U] the “polymerase ribozyme fitness (log ratio)” value was -3.05.
